Source: the Human Domainome abundance scans (Beltran et al. 2025)
± gives the uncertainty stated by the source.

B1: Transcriptional regulator ERG, residues 117 to 197; numbered along this chain, P11308 (parent)
chain: NMTTNERRVIVPADPTLWSTDHVRQWLEWAVKEYGLPDVNILLFQNIDGKELCKMTKDDFQRLTPSYNADILLSHLHYLRE

Variants of: B1
Assay: abundance fitness (aPCA) (normalised: wild type 0, dead -1); higher = more abundant; growth selection in yeast, the domain comes from the species named
Details: Homo sapiens

Abundance fitness, by site and new letter:
F60: V -0.083 ± 0.054, L -0.093 ± 0.061, I 0.074 ± 0.11, M 0.13 ± 0.089, Q -1.05 ± 0.35, T -0.902 ± 0.32, S -0.536 ± 0.15, W 0.017 ± 0.062, Y -0.365 ± 0.2, R -0.866 ± 0.14
Y67: E 0.037 ± 0.072, C 0.127 ± 0.098, A 0.016 ± 0.063, K -0.097 ± 0.1, D 0.199 ± 0.096, F -0.242 ± 0.15, P 0.036 ± 0.09, T 0.113 ± 0.072, M -0.14 ± 0.1, H 0.033 ± 0.15, L -0.03 ± 0.072, Q 0.079 ± 0.12, G 0.078 ± 0.042, V 0.019 ± 0.062, I -0.16 ± 0.19, S 0.075 ± 0.07, N 0.138 ± 0.12
N68: E 0.085 ± 0.049, K -0.266 ± 0.08, I -0.079 ± 0.12, A 0.013 ± 0.047, D 0.021 ± 0.092, C -0.212 ± 0.1, V 0.008 ± 0.046, P 0.017 ± 0.064, L -0.48 ± 0.081, F -0.468 ± 0.19, R -0.275 ± 0.045, M -0.155 ± 0.08, S 0.011 ± 0.054, Q 0.085 ± 0.066
L63: S -0.46 ± 0.086, K -0.213 ± 0.073, E -0.691 ± 0.092, F -0.071 ± 0.11, P -0.567 ± 0.23, V -0.092 ± 0.041, G -0.547 ± 0.056, H -0.18 ± 0.1, W -0.179 ± 0.05, T -0.476 ± 0.18, N -0.571 ± 0.15, A -0.238 ± 0.092, Y -0.027 ± 0.098, M -0.003 ± 0.067, C -0.215 ± 0.079, I 0.097 ± 0.15, R -0.153 ± 0.041, Q -0.459 ± 0.17
Q61: A 0.011 ± 0.049, S -0.032 ± 0.05, T 0.105 ± 0.068, E 0.056 ± 0.061, H 0.173 ± 0.11, V -0.002 ± 0.047, P -0.617 ± 0.18, I 0.193 ± 0.33, C -0.037 ± 0.079, R -0.026 ± 0.041, M 0.096 ± 0.076, D -0.037 ± 0.12, W -0.101 ± 0.065, K 0.044 ± 0.094, F -0.042 ± 0.15, N -0.06 ± 0.09, G -0.021 ± 0.038, Y -0.058 ± 0.1
A69: Q -0.564 ± 0.49, S -0.352 ± 0.23, R -0.748 ± 0.12, T -0.219 ± 0.14, P -0.124 ± 0.14, M -0.186 ± 0.11, W -0.203 ± 0.14, L -0.658 ± 0.17, V -0.039 ± 0.057, G -0.124 ± 0.054, K -0.445 ± 0.17
T64: A -0.034 ± 0.053, I -0.345 ± 0.12, E -0.175 ± 0.06, S -0.155 ± 0.048, G -0.141 ± 0.039, M 0.011 ± 0.056, V -0.028 ± 0.042, Q -0.135 ± 0.069, F 0.025 ± 0.15, W -0.091 ± 0.052, C -0.076 ± 0.084, D 0.041 ± 0.077, K -0.576 ± 0.12, N 0.02 ± 0.12
S66: P 0.03 ± 0.1, R -0.057 ± 0.054, T -0.12 ± 0.098, I -0.178 ± 0.11, C -0.005 ± 0.14, W -0.28 ± 0.076, F -0.039 ± 0.11, Q -0.012 ± 0.075, N 0.11 ± 0.13, G -0.025 ± 0.047, K -0.056 ± 0.071, E 0.03 ± 0.069, V -0.117 ± 0.061, D -0.185 ± 0.12, A 0.058 ± 0.063, M -0.295 ± 0.098, L -0.239 ± 0.062, H -0.107 ± 0.13
P65: A 0.025 ± 0.052, H 0.135 ± 0.22, L -0.146 ± 0.11, R -0.017 ± 0.046, D 0.07 ± 0.089, N -0.271 ± 0.25, T 0.02 ± 0.093, F 0.342 ± 0.29, E -0.088 ± 0.057, G -0.004 ± 0.036, K -0.107 ± 0.09, C 0.051 ± 0.087, W -0.109 ± 0.077, I -0.449 ± 0.27, S 0.044 ± 0.076, Y 0.109 ± 0.28, M 0.048 ± 0.077, Q -0.265 ± 0.12
R62: F -0.112 ± 0.11, H -0.165 ± 0.14, I 0.03 ± 0.077, K 0.017 ± 0.092, L -0.152 ± 0.069, T -0.162 ± 0.12, N 0.015 ± 0.09, W -0.26 ± 0.1, A 0.022 ± 0.054, V -0.063 ± 0.061, Q 0.067 ± 0.11, S -0.095 ± 0.062, P -0.399 ± 0.13, G -0.06 ± 0.054, Y -0.138 ± 0.091, D 0.02 ± 0.067, E -0.073 ± 0.083, C -0.072 ± 0.084, M 0.097 ± 0.089
D70: H -0.011 ± 0.15, L -0.24 ± 0.053, G -0.05 ± 0.038, E 0.07 ± 0.049, P -0.316 ± 0.13, N -0.143 ± 0.1, F -0.448 ± 0.25, K -0.097 ± 0.081, M -0.237 ± 0.084, A -0.169 ± 0.058
